Measurements published in the DeepSol protein solubility set.

assay: soluble on expression in E. coli; label from the status in PepcDB or PDB records

Row | Sequence | soluble on expression in E. coli
1 | TSDDHVPVDITDLLDRAAHDAARIYPDLDVSLVPSPTCIIVGLPAGLRLAVDNAIANAVKHGGATLVQLSAVSSRAGVEIAIDDNGSGVPEGERQVVFERFSRGSTASHSGSGLGLALVAQQAQLHGGTASLENSPLGGARLVLRLPGPS | soluble
2 | TTNKPIVLSTWNFGLHANVEAWKVLSKGGKALDAVEKGVRLVEDDPTERSVGYGGRPDRDGRVTLDACIMDENYNIGSVACMEHIKNPISVARAVMEKTPHVMLVGDGALEFALSQGFKKENLLTAESEKEWKEWLKTSQYKPIVNIENHDCIGMIALDAQGNLSGACTTSGMAYKMHGRVGDSPIIGAGLFVDNEIGAATATGHGEEVIRTVGTHLVVELMNQGRTPQQACKEAVERIVKIVNRRGKNLKDIQVGFIALNKKGEYGAYCIQDGFNFAVHDQKGNRLETPGFALK | soluble
3 | TVTSASDQTTTFIQTISPTAIEISKTYDLYASVLLAQAILESSSGQSDLSKAPNYNLFGIKGEYKGKSVQMPTLEDDGKGNMTQIQAPFRAYPNYSASLYDYAELVSSQKYASVWKSNTSSYKDATAALTGLYATDTAYASKLNQIIETYSL | not soluble
4 | TWVVSPAEKAKYDEIFLKTDKDMDGFVSGLEVREIFLKTGLPSTLLAHIWSLCDTKDCGKLSKDQFALAFHLISQKLIKGIDPPHVLTPEMIPPS | soluble
5 | TYAFQRRRFWETPGADGPADAAGLGLGATEHALLGAVVERPDSDEVVLTGRLSLADQPWLADHVVNGVVLFPGAGFVELVIRAGDEVGCALIEELVLAAPLVMHPGVGVQVQVVVGAADESGHRAVSVYSRGDQSQGWLLNAEGMLGVAAAETPMDLSV | soluble
6 | VAHFTFQPDPEPREYGQTQKMNLFQSVTSALDNSLAKDPTAVIFGEDVAFGGVFRCTVGLRDKYGKDRVFNTPLCEQGIVGFGIGIAVTGATAIAEIQFADYIFPAFDQIVNEAAKYRYRSGDLFNCGSLTIRSPWGCVGHGALYHSQSPEAFFAHCPGIKVVIPRSPFQAKGLLLSCIEDKNPCIFFEPKILYRAAAEEVPIEPYNIPLSQAEVIQEGSDVTLVAWGTQVHVIREVASMAKEKLGVSCEVIDLRTIIPWDVDTICKSVIKTGRLLISHEAPLTGGFASEISSTVQEECFLNLEAPISRVCGYDTPFPHIFEPFYIPDKWKCYDALRKMINYGGHHHHHH | soluble
7 | VAYWLVKSEPSVWSWDQQVAKGAAGEAWTGVRNHSAKLHMVAMRRGDRAFYYHSNEGKEIVGIAEIIREAYPDPTDASGKFVCVDIKADKPLKTPVTLAAVKAEPRLADMALMKYSRLSVQPVTAEEWKLVCKMGGLLEHHHHHH | soluble
8 | VEHEQQVTESPSLASVPTADELFDFHIGDRVLIGNVQPGILRFKGETSFAKGFWAGVELDKPEGNNNGTYDGIAYFECKEKHGIFAPPQKISHIPENFDDYVDINEDED | soluble
9 | VFADKLDITVDQKKIILPYWLSRPVSYGAVIIVSGGETAQWSLLLEQFAKGLARNGWSVVLLNCTKNNSIPWINQLPEVISTLRQNNNKRIVLVHYGDQLNLALEYFSKPQSKMINGLVMLSAYDLNRNLQKVPRLRFPLFDIVGQFDYDMVRQQRKSREEKFKENSYLAIDIPGATHDYQYSQQLLLAFVHGWM | not soluble
10 | VGGQVRIAANTSSITQFLPEDLAGFMQRHPAVRIHLEEQNSSDIVTAVAENRADVGIFADRTPAAGLTTVPYRLDELVLITPPRHPLAARAQVAFADTLDCDYVGLPPATSLATRLADESARLDKSIRLRIQVRSFDAICRMVVAT | not soluble
11 | VGKVFVDAIVKFTKEGDKIPLEIVWDDGRRFEVDRVLDVTKAASLKAGGRGTRYKCRIRGKEIYLFFDDEKWFVETGNK | not soluble
12 | VGSFYGQYLSIRKTEALLRNELNALTPATVMELADKLPEKSSSLVISYIRQVLQAHESPAQIQRLLANFEIAADKDLAISKTLTKLGP | not soluble
13 | VIESMSDGYIVVDTSNSIVDVNRAVLELAGKTRKEVLGKNLTYLFGEGVELLCHTPEGDFGREISLKSGSEIKFFTVSVSPLMARNEPEGKLIMIHDIT | not soluble
14 | VLRHISPAFAEDPLRVLRAARFMARLAPLGFSIAPETLAMMRQMAANGELNSLIPERIWKELSRSLTYTQPAAFLHTLRTVNALEVVLPELNALYGVPQHADYHPEIDTGLHQELVSDIAAKLAPGDMLIGFAALCHDLGKALTPRATWPHHPMHEQRGMAPTQQLSERLKVPRNYQQLALIACREHLNVHRLSKLHDNTVYELLQRCDAFRRPERIAQLAIVCEADYRGRYGHEDANYPQG | not soluble
